The results in this text go back to paper PMC6441080, “Coordination of capsule assembly and cell wall biosynthesis in Staphylococcus aureus” (Nature Communications, 2019).

The test system of this series is CC(=O)N[C@H]1[C@@H](OP(=O)(O)OP(=O)(O)OC[C@H]2O[C@@H](n3ccc(=O)[nH]c3=O)[C@H](O)[C@@H]2O)O[C@H](C)[C@H](O)[C@@H]1O. Nature of the series: purified protein. Conditions: Mg2+.

On to “CapM (Staphylococcus aureus subsp. aureus USA300)”, for which the Km is 2,309 ± 311.8 µM.
